Experimental data taken from paper PMC6892922.

B1: Ehg1-Cub-LV [S. cerevisiae] / NubG-Fur4 [S. cerevisiae] (parent)
chain 1: MRSFVTNNDIPVGYVTPKFPSLYWPINNSKYNTAFLYYISDIWKFSLYWTLIFNGAFYVTAGVYASLTHRKKAGSVWIFVMYVLYGGVQGLTTGTVMGFLIGAIYRSGLFSMSTWVPLCCAVVQILFDVVLSYSMVGSVM
chain 2: MPDNLSLHLSGSSKRLNSRQLMESSNETFAPNNVDLEKEYKSSQSNITTEVYEASSFEEKVSSEKPQYSSFWKKIYYEYVVVDKSILGVSILDSFMYNQDLKPVEKERRVWSWYNYCYFWLAECFNINTWQIAATGLQLGLNWWQCWITIWIGYGFVGAFVVLASRVGSAYHLSFPISSRASFGIFFSLWPVINRVVMAIVWYSVQAYIAATPVSLMLKSIFGKDLQDKIPDHFGSPNATTYEFMCFFIFWAASLPFLLVPPHKIRHLFTVKAVLVPFASFGFLIWAIRRAHGRIALGSLTDVQPHGSAFSWAFLRSLMGCMANFSTMVINAPDFSRFSKNPNSALWSQLVCIPFLFSITCLIGILVTAAGYEIYGINYWSPLDVLEKFLQTTYNKGTRAGVFLISFVFAVAQLGTNISANSLSCGTDMSAIFPKFINIKRGSLFCAAMALCICPWNLMATSSKFTMALSAYAIFLSSIAGVVCSDYFVVRRGYIKLTHIYSHQKGSFYMYGNRFGINWRALAAYLCGVAPCLPGFIAEVGAPAIKVSDGAMKLYYLSYWVGYGLSFSSYTALCYFFPVPGCPVNNIIKDKGWFQRWANVDDFEEEWKDTIERDDLVDDNISVYEHEHEKTFI
B2: Ehg1-Cub-LV [S. cerevisiae] / NubG-Bap2 [S. cerevisiae] (parent)
chain 1: B1 chain 1
chain 2: MLSSEDFGSSGKKETSPDSISIRSFSAGNNFQSSSSEKTYSKQKSGSDKLIHRFADSFKRAEGSTTRTKQINENTSDLEDGVESITSDSKLKKSMKSRHVVMMSLGTGIGTGLLVANAKGLHYGGPAALIIGYILVSFVTYFMIQAAGEMAVTYPTLPANFNAYSSIFISKSFGFATVWLYCFQWLTVLPLELITASMTIQFWNDKINPDIYILIFYVFLVFIHFFGVKAYGETEFIFNCCKILMIAGFIILSIVINCGGAGNDGYIGATYWHNPGAFAGDTSIGRFKNVCYILVTAYFSFGGMELFALSVQEQSNPRKSTPVAAKRSIYRIVVIYLLTMILIGFNVPYNDDQLMGAGGSATHASPYVLAASIHGVKIVPHIINAVILISVVSVANSSLYAGPRLICSLAQQGYAPKFLDYVDREGRPLRALIVCCVFGVIAFVAASSKEEIVFTWLAAIAGLSELFTWTSIMLSHLRFRQAMKVQGRSLDELGYKATTGIWGSIYGVFFNILVFVAQFWVALAPLGNGGKCDAESFFQNYLAFPIWLAFYFGYMVYNRDFTLLNPLDKIDLDFHRRIYDPELMRQEDEENKEKLRNMSLMRKAYHFWC
B3: Ehg1-Cub-LV [S. cerevisiae] / NubG-Hip1 [S. cerevisiae] (parent)
chain 1: B1 chain 1
chain 2: MPRNPLKKEYWADVVDGFKPATSPAFENEKESTTFVTELTSKTDSAFPLSSKDSPGINQTTNDITSSDRFRRNEDTEQEDINNTNLSKDLSVRHLLTLAVGGAIGTGLYVNTGAALSTGGPASLVIDWVIISTCLFTVINSLGELSAAFPVVGGFNVYSMRFIEPSFAFAVNLNYLAQWLVLLPLELVAASITIKYWNDKINSDAWVAIFYATIALANMLDVKSFGETEFVLSMIKILSIIGFTILGIVLSCGGGPHGGYIGGKYWHDPGAFVGHSSGTQFKGLCSVFVTAAFSYSGIEMTAVSAAESKNPRETIPKAAKRTFWLITASYVTILTLIGCLVPSNDPRLLNGSSSVDAASSPLVIAIENGGIKGLPSLMNAIILIAVVSVANSAVYACSRCMVAMAHIGNLPKFLNRVDKRGRPMNAILLTLFFGLLSFVAASDKQAEVFTWLSALSGLSTIFCWMAINLSHIRFRQAMKVQERSLDELPFISQTGVKGSWYGFIVLFLVLIASFWTSLFPLGGSGASAESFFEGYLSFPILIVCYVGHKLYTRNWTLMVKLEDMDLDTGRKQVDLTLRREEMRIERETLAKRSFVTRFLHFWC

Variants of: B1
Experiment: split-ubiquitin yeast two-hybrid (growth of strain NMY51)
Conditions: with NubG-Fur4 [S. cerevisiae]; sub-panel Ehg1–Fur4; SC–His medium; 24 h starting at OD600 0.1; NubG-vector control est. 0.40; parent: 1.8; read off a plot

response [OD600] | Variant
0.45 | chain 1 MRSFVTNNDIPVGYVTAKFASLYWPINNSKYNTAFLYYISDIWKFSLYWTLIFNGAFYVTAGVYASLTHRKKAGSVWIFVMYVLYGGVQGLTTGTVMGFLIGAIYRSGLFSMSTWVPLCCAVVQILFDVVLSYSMVGSVM [chain 1 P17A P20A]
0.65 | chain 1 MRSFVTNNDIPVGYVTPKAPSLYWPINNSKYNTAFLYYISDIWKFSLYWTLIFNGAFYVTAGVYASLTHRKKAGSVWIFVMYVLYGGVQGLTTGTVMGFLIGAIYRSGLFSMSTWVPLCCAVVQILFDVVLSYSMVGSVM [chain 1 F19A]

Same assay, conditions: with NubG-Fur4 [S. cerevisiae]; sub-panel Ehg1–Fur4; SC–His–Ade medium; 24 h starting at OD600 0.1; NubG-vector control est. 0.16; parent: 0.95; read off a plot

response [OD600] | Variant
0.17 | chain 1 MRSFVTNNDIPVGYVTAKFASLYWPINNSKYNTAFLYYISDIWKFSLYWTLIFNGAFYVTAGVYASLTHRKKAGSVWIFVMYVLYGGVQGLTTGTVMGFLIGAIYRSGLFSMSTWVPLCCAVVQILFDVVLSYSMVGSVM [chain 1 P17A P20A]
0.22 | chain 1 MRSFVTNNDIPVGYVTPKAPSLYWPINNSKYNTAFLYYISDIWKFSLYWTLIFNGAFYVTAGVYASLTHRKKAGSVWIFVMYVLYGGVQGLTTGTVMGFLIGAIYRSGLFSMSTWVPLCCAVVQILFDVVLSYSMVGSVM [chain 1 F19A]

Variants of: B2
Experiment: as above
Conditions: with NubG-Bap2 [S. cerevisiae]; sub-panel Ehg1–Bap2; SC–His medium; 24 h starting at OD600 0.1; NubG-vector control est. 0.46; parent: 1.3; read off a plot

response [OD600] | Variant
0.72 | chain 1 MRSFVTNNDIPVGYVTPKAPSLYWPINNSKYNTAFLYYISDIWKFSLYWTLIFNGAFYVTAGVYASLTHRKKAGSVWIFVMYVLYGGVQGLTTGTVMGFLIGAIYRSGLFSMSTWVPLCCAVVQILFDVVLSYSMVGSVM [chain 1 F19A]
0.5 | chain 1 MRSFVTNNDIPVGYVTAKFASLYWPINNSKYNTAFLYYISDIWKFSLYWTLIFNGAFYVTAGVYASLTHRKKAGSVWIFVMYVLYGGVQGLTTGTVMGFLIGAIYRSGLFSMSTWVPLCCAVVQILFDVVLSYSMVGSVM [chain 1 P17A P20A]

Same assay, conditions: with NubG-Bap2 [S. cerevisiae]; sub-panel Ehg1–Bap2; SC–His–Ade medium; 24 h starting at OD600 0.1; NubG-vector control est. 0.17; parent: 0.45; read off a plot

response [OD600] | Variant
0.27 | chain 1 MRSFVTNNDIPVGYVTPKAPSLYWPINNSKYNTAFLYYISDIWKFSLYWTLIFNGAFYVTAGVYASLTHRKKAGSVWIFVMYVLYGGVQGLTTGTVMGFLIGAIYRSGLFSMSTWVPLCCAVVQILFDVVLSYSMVGSVM [chain 1 F19A]
0.17 | chain 1 MRSFVTNNDIPVGYVTAKFASLYWPINNSKYNTAFLYYISDIWKFSLYWTLIFNGAFYVTAGVYASLTHRKKAGSVWIFVMYVLYGGVQGLTTGTVMGFLIGAIYRSGLFSMSTWVPLCCAVVQILFDVVLSYSMVGSVM [chain 1 P17A P20A]

Variants of: B3
Experiment: as above
Conditions: with NubG-Hip1 [S. cerevisiae]; sub-panel Ehg1–Hip1; SC–His medium; 24 h starting at OD600 0.1; NubG-vector control est. 0.48; parent: 1.8; read off a plot

response [OD600] | Variant
1.3 | chain 1 MRSFVTNNDIPVGYVTAKFASLYWPINNSKYNTAFLYYISDIWKFSLYWTLIFNGAFYVTAGVYASLTHRKKAGSVWIFVMYVLYGGVQGLTTGTVMGFLIGAIYRSGLFSMSTWVPLCCAVVQILFDVVLSYSMVGSVM [chain 1 P17A P20A]
1.5 | chain 1 MRSFVTNNDIPVGYVTPKAPSLYWPINNSKYNTAFLYYISDIWKFSLYWTLIFNGAFYVTAGVYASLTHRKKAGSVWIFVMYVLYGGVQGLTTGTVMGFLIGAIYRSGLFSMSTWVPLCCAVVQILFDVVLSYSMVGSVM [chain 1 F19A]

Same assay, conditions: with NubG-Hip1 [S. cerevisiae]; sub-panel Ehg1–Hip1; SC–His–Ade medium; 24 h starting at OD600 0.1; NubG-vector control est. 0.20; parent: 0.73; read off a plot

response [OD600] | Variant
0.5 | chain 1 MRSFVTNNDIPVGYVTAKFASLYWPINNSKYNTAFLYYISDIWKFSLYWTLIFNGAFYVTAGVYASLTHRKKAGSVWIFVMYVLYGGVQGLTTGTVMGFLIGAIYRSGLFSMSTWVPLCCAVVQILFDVVLSYSMVGSVM [chain 1 P17A P20A]
0.75 | chain 1 MRSFVTNNDIPVGYVTPKAPSLYWPINNSKYNTAFLYYISDIWKFSLYWTLIFNGAFYVTAGVYASLTHRKKAGSVWIFVMYVLYGGVQGLTTGTVMGFLIGAIYRSGLFSMSTWVPLCCAVVQILFDVVLSYSMVGSVM [chain 1 F19A]
